Laboratory results published in the supplement of paper PMC10567573.

B1: PRKX (parent)
chain: KLLVVDRTRRLGNMKNGANDVKHH
B2: DVL3 (parent)
chain: FPELGYSYGGGSASSQHSEGSRSS

Variants of: B1
Assay: protein stability index of a GFP-peptide fusion (GPS, HEK-293T) (PSI 1-6); higher = more stable
Conditions: c terminus: a fixed tail appended
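Further: lentivirally expressed fusions sorted by FACS into six bins by GFP to DsRed ratio, PSI derived from sequencing read proportions per bin multiplied by bin number.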

Protein stability index, by site and new letter:
H24: V 2.65, Y 2.46, W 2.76

Variants of: B2
Assay: as above
Conditions: c terminus: a fixed tail appended

Protein stability index: each site, then its substitutions
G5: L 3.18, F 2.33, V 3.64, Q 4.39, H 3.08, R 3.58, D 4.59, N 3.96, W 1.61, M 3.31, A 2.91
E3: C 2.76, W 2.99, Y 2.61, Q 3.16, H 2.58, N 2.63, P 2.96, I 3.59, D 2.67, V 3.75, A 3.43, S 1.59, L 3.87, K 2.62, M 3.5
Y6: W 1.66, Q 4.3, P 3.76, H 3.77, N 4.58, F 2.32, I 3.77, R 3.5, C 3.4, D 5.2, L 3.53
S7: R 2.18, G 2.5, A 2.12, I 2.04, P 2.7, N 3.55, D 4.89, M 2.65, L 2.26, H 2.4, Q 3.22, T 2.36, C 1.84
S24: E 4.02, T 2.92, H 3, K 3.42, I 2.37, M 2.97, R 3.69, D 3.24, C 2.99, W 1.95, P 3.93, Q 3.01, V 2.34
G20: Y 2.64, T 3.42, C 2.99, A 2.52, N 3.43, I 2.73, E 3.52, L 2.5, F 2.63, V 2.75, M 2.48, K 3.06, H 2.9, P 2.94, R 3.15, S 3.18
H17: S 2.8, P 3.35, Q 2.83, T 3.12, N 3.31, G 3.07, E 3.29, Y 2.45, V 3.22, F 2.77
G9: A 2.39, Y 2.11, Q 2.8, M 2.49, C 2.3, I 2.22, L 1.6, W 1.58, N 3.77, F 2.43, V 2.4
S23: A 2.97, K 3.05, W 2.59, F 2.39, N 2.91, C 3.38, Q 3.24, T 2.46, E 2.9, V 2.63, I 3.34, D 3.17, Y 2.49, P 3.23
F1: E 5.18, N 5.32, V 4.03, H 4.96, G 4.62, T 4.95, A 5.09, L 4.22, D 5.2, M 4.38, P 5.34, C 4.68, Y 4, R 4.86, K 4.89
R22: N 3.56, A 3.41, L 2.53, W 2.88, I 3.43, T 2.6, S 3.66, P 3.59, C 3.41, H 3.24, Y 3.21, K 3.15, Q 2.92, M 3.4, G 3.53
S14: N 2.87, W 2.47, H 3.17, E 3.41, K 3.51, L 2.73, T 2.77, F 2.16, V 2.96, P 3.24, A 3.45, I 2.9
L4: S 2.62, D 4.52, C 2.82, A 3.47, W 1.76, V 3.36, I 3.25, K 2.98
